Measured values from patent US20220380463A1 (Adimab, published 2022).

T1: Cynomolgus CD3εδ Fc heterodimer (Cy CD3ε Fc / CD3δ Fc-HIS) (cynomolgus, UniProt Q95LI8 22-100)
T1 chain 1: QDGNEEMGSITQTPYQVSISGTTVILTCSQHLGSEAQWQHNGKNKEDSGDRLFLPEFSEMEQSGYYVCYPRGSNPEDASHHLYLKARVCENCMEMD
T1 chain 2: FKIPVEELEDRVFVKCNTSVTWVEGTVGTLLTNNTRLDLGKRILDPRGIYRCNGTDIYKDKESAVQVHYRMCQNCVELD


Target: T1, Cynomolgus CD3εδ Fc heterodimer (Cy …)
Assay: BLI (Octet), IgG on AHC sensor, pH 6.0

Binder | koff [s⁻¹]
SAD10319_P02_F05 (ADI-57317) (antibody, V domains shown, IgG; also called Ab5) VH: QVQLVQSGAEVKKPGASVKVSCKASGYTFNNYAMHWVRQAPGQRLEWMGWIDAGTGNTDYSQKFQGRVTITRDTSASTAYMELSSLRSEDTAVYYCARDAHHRYFYDVWGQGTLVTVSS VL: DIVMTQSPDSLAVSLGERATINCKSSQSLLNARTGKNYLAWYQQKPGQPPKLLIYWASTRESGVPDRFSGSGSGTDFTLTISSLQAEDVAVYYCKQSYSRRTFGGGTKVEIK | 0.0262
SAD10319_P02_G05 (ADI-57318) (antibody, V domains shown, IgG; also called Ab6) VH: QVQLVQSGAEVKKPGASVKVSCKASGYTFTQYTMHWVRQAPGQRLEWMGSIDAGTGATKYSQKFQGRVTITRDTSASTAYMELSSLRSEDTAVYYCARDAYHHYFYDVWGQGTLVTVSS VL: DIVMTQSPDSLAVSLGERATINCKSSQSLLNARTGKNYLAWYQQKPGQPPKLLIYWASTRESGVPDRFSGSGSGTDFTLTISSLQAEDVAVYYCKQSYSRRTFGGGTKVEIK | 0.00475
SAD10319_P03_H07 (ADI-57326) (antibody, V domains shown, IgG; also called Ab19) VH: QVQLVQSGAEVKKPGASVKVSCKASGYTFNSYDMHWVRQAPGQRLEWMGWINPYTGETKYSQKFQGRVTITRDTSASTAYMELSSLRSEDTAVYYCARDHYGHYFYDVWGQGTLVTVSS VL: DIVMTQSPDSLAVSLGERATINCKSSQSLLNARTGKNYLAWYQQKPGQPPKLLIYWASTRESGVPDRFSGSGSGTDFTLTISSLQAEDVAVYYCKQSYSRRTFGGGTKVEIK | 0.0201
SAD10319_P02_D06 (ADI-48631) (antibody, V domains shown, IgG; also called Ab11) VH: QVQLVQSGAEVKKPGASVKVSCKASGYTFTDYAMHWVRQAPGQRLEWMGWINAGTGATIYSQKFQGRVTITRDTSASTAYMELSSLRSEDTAVYYCARDAYHHYFYDVWGQGTLVTVSS VL: DIVMTQSPDSLAVSLGERATINCKSSQSLLNARTGKNYLAWYQQKPGQPPKLLIYWASTRESGVPDRFSGSGSGTDFTLTISSLQAEDVAVYYCKQSYSRRTFGGGTKVEIK | 0.0212
SAD10319_P03_H08 (ADI-57328) (antibody, V domains shown, IgG; also called Ab23) VH: QVQLVQSGAEVKKPGASVKVSCKASGYTFKSYDMHWVRQAPGQRPEWMGWINAGTGNTVYSQKFQGRVTITRDTSASTAYMELSSLRSEDTAVYYCARDAYHRYFYDVWGQGTLVTVSS VL: DIVMTQSPDSLAVSLGERATINCKSSQSLLNARTGKNYLAWYQQKPGQPPKLLIYWASTRESGVPDRFSGSGSGTDFTLTISSLQAEDVAVYYCKQSYSRRTFGGGTKVEIK | 0.00348
SAD10319_P03_F09 (ADI-57329) (antibody, V domains shown, IgG; also called Ab27) VH: QVQLVQSGAEVKKPGASVKVSCKASGYTFPSYPMHWVRQAPGQRLDWMGWINPDTGATVYSQKFQGRVTITRDTSASTAYMELSSLRSEDTAVYYCARDAYHHYFYDVWGQGTLVTVSS VL: DIVMTQSPDSLAVSLGERATINCKSSQSPLNARTGKNYLAWYQQKPGQPPKLLIYWASTRESGVPDRFSGSGSGTDFTLTISSLQAEDVAVYYCKQSYSRRTFGGGTKVEIK | 0.0199
SAD10319_P03_E08 (ADI-48637) (antibody, V domains shown, IgG; also called Ab21) VH: QVQLVQSGAEVKKPGASVKVSCKASGYTFNDYAMHWVRQAPGQRLEWMGYINGTGATVYSQKFQGRVTITRDTSASTAYMELSSLRSEDTAVYYCARDAYHHYFYDVWSQGTLVTVSS VL: DIVMTQSPDSLAVSLGERATINCKSSQSLLNARTGKNYLAWYQQKPGQPPKLLIYWASTRESGVPDRFSGSGSGTDFTLTISSLQAEDVAVYYCKQSYSRRTFGGGTKVEIK | 0.0197
SAD10319_P02_H05 (ADI-57319) (antibody, V domains shown, IgG; also called Ab7) VH: QVQLVQSGAEVKKPGASVKVSCKASGYTFTQYSMHWVRQAPGQRLEWMGWINAGTGDTVYSQKFQGRVTITRDTSASTAYMELSSLRSEDTAVYYCARDHHGRYFYDVWGQGTLVTVSS VL: DIVMTQSPDSLAVSLGERATINCKSSQSLFNARTGKNYLAWYQQKPGQPPKLLIYWASTRESGVPDRFSGSGSGTDFTLTISSLQAEDVAVYYCKQSYSRRTFGGGTKVEIK | 0.019
SAD10319_P03_G07 (ADI-57325) (antibody, V domains shown, IgG; also called Ab18) VH: QVQLVQSGAEVKKPGASVKVSCKASGYTFDSYLMHWVRQAPGQRLEWMGWIDAGTGATNYSQKFQGRVTITRDTSASTAYMELSSLRSEDTAVYYCARDAHGHYFYDVWGQGTLVTVSS VL: DIVMTQSPDSLAVSLGERATINCKSSQSLLNARTGKNYLAWYQQKPGQPPKLLIYWASTRESGVPDRFSGSGSGTDFTLTISSLQAEDVAVYYCKQSYSRRTFGGGTKVEIK | 0.0187
SAD10319_P02_G06 (ADI-48632) (antibody, V domains shown, IgG; also called Ab15) VH: QVQLVQSGAEVKKPGASVKVSCKASGYTFTSYAMHWVRQAPGQRLEWMGWINPDTGATVYSQKFQGRVTITRDTSASTAYMELSSLRSEDTAVYYCARDAYHHYFYDVWGQGTLVTVSS VL: DIVMTQSPDSLAVSLGERATINCKSSQSLLNARTGKNYLAWYQQKPGQPPKLLIYWASTRESGVPDRFSGSGSGTDFTLTISSLQAEDVAVYYCKQSYSRRTFGGGTKVEIK | 0.0242
SAD10319_P03_G09 (ADI-57300) (antibody, V domains shown, IgG; ADI-57300 is also printed for Ab234; also called Ab28) VH: QVQLVQSGAEVKKPGASVKVSCKASGYTFTSYDMHWVRQAPGQRLEWMGWIDPHTGATKYSQKFQGRVTITRDTSASTAYMELSSLRSEDTAVYYCARDAYGRYFYDHWGQGTLVTVSS VL: DIVMTQSPDSLAVSLGERATINCKSSQSLLNARTGKNYLAWYQQKPGQPPKLLIYWASTRESGVPDRFSGSGSGTDFTLTISSLQAEDVAVYYCKQSYSRRTFGGGTKVEIK | 0.0219
SAD10319_P02_B06 (ADI-57321) (antibody, V domains shown, IgG; also called Ab9) VH: QVQLVQSGAEVKKPGASVKVSCKASGYTFTSYTMHWVRQAPGQRPEWMGSINAGTGFTDYSQKFQGRVTITRDTSASTAYMELSSLRSEDTAVYYCARDHYGHYFYDVWGQGTLVTVSS VL: DIVMTQSPDSLAVSLGERATINCKSSQSLLNARTGKNYLAWYQQKPGQPPKLLIYWASTRESGVPDRFSGSGSGTDFTLTISSLQAEDVAVYYCKQSYSRRTFGGGTKVEIK | 0.00531
SAD10319_P03_G08 (ADI-48638) (antibody, V domains shown, IgG; also called Ab22) VH: QVQLVQSGAEVKKPGASVKVSCKASGYTFSSYDMHWVRQAPGQRLEWMGWIDAGTGFTKYSQKFQGRVTITRDTSASTAYMELSSLRSEDTAVYYCARDAYGHYFYDHWGQGTLVTVSS VL: DIVMTQSPDSLAVSLGERATINCKSSQSLLNARTGKNYLAWYQQKPGQPPKLLIYWASTRESGVPDRFSGSGSGTDFTLTISSLQAEDVAVYYCKQSYSRRTFGGGTKVEIK | 0.0168
SAD10319_P03_D08 (ADI-57327) (antibody, V domains shown, IgG; also called Ab20) VH: QVQLVQSGAEVKKPGASVKVSCKASGYTFYSYEMHWVRQAPGQRLDWMGWINPQTGATKYSQKFQGRVTITRDTSASTAYMELSSLRSEDTAVYYCARDAYHHYFYDVWGQGTLVTVSS VL: DIVMTQSPDSLAVSLGERATINCKSSQSLLNARTGKNYLAWYQQKPGQPPKLLIYWASTRESGVPDRFSGSGSGTDFTLTISSLQAEDVAVYYCKQSYSRRTFGGGTKVEIK | 0.02

Second part, the binder after the results:

koff [s⁻¹] | Binder
0.00273 | SAD10319_P04_B11 (ADI-57335) (antibody, V domains shown, IgG; also called Ab33) VH: QVQLVQSGAEVKKPGASVKVSCKASGYTFGSYDMHWVRQAPGQRLEWMGWIDAGTGATKYSQKFQGRVTITRDTSASTAYMELSSLRSEDTAVYYCARDAHGHYFYDVWGQGTLVTVSS VL: DIVMTQSPDSLAVSLGERATINCKSSQSLLNARTGKNYLAWYQQKPGQPPKLLIYWASTRESGVPDRFSGSGSGTDFTLTISSLQAEDVAVYYCKQSYSRRTFGGGTKVEIK
0.00202 | SAD10319_P04_F11 (ADI-57339) (antibody, V domains shown, IgG; also called Ab38) VH: QVQLVQSGAEVKKPGASVKVSCKASGYTFTDYNMHWVRQAPGQRLQWMGWINPYTGYTKYSQKFQGRVTITRDTSASTAYMELSSLRSEDTAVYYCARDHYGHYFYDVWGQGTLVTVSS VL: DIVMTQSPDSLAVSLGERATINCKSSQSLLNARTGKNYLAWYQQKPGQPPKLLIYWASTRESGVPDRFSGSGSGTDFTLTISSLQAEDVAVYYCKQSYSRRTFGGGTKVEIK
0.00339 | SAD10319_P04_D11 (ADI-57337) (antibody, V domains shown, IgG; also called Ab35) VH: QVQLVQSGAEVKKPGASVKVSCKASGYTFNSYRMHWVRQAPGQRLEWMGSIDAGTGNTKYSQKFQGRVTITRDTSASTAYMELSSLRSEDTAVYYCARDAYGRYFYDHWGQGTLVTVSS VL: DIVMTQSPDSLAVSLGERATINCKSSQSLLNARTGKNYLAWYQQKPGQPPKLLIYWASTRESGVPDRFSGSGSGTDFTLTISSLQAEDVAVYYCKQSYSRRTFGGGTKVEIK
0.00317 | SAD10319_P04_C11 (ADI-57336) (antibody, V domains shown, IgG; also called Ab34) VH: QVQLVQSGAEVKKPGASVKVSCKASGYTFHSYEMHWVRQAPGQRLEWMGWINPSTGSTKYSQKFQGRVTITRDTSASTAYMELSSLRSEDTAVYYCARDAYGRYFYDHWGQGTLVTVSS VL: DIVMTQSPDSLAVSLGERATINCKSSQSLLNARTGKNYLAWYQQKPGQPPKLLIYWASTRESGVPDRFSGSGSGTDFTLTISSLQAEDVAVYYCKQSYSRRTFGGGTKVEIK
0.00124 | SAD10319_P04_C10 (ADI-57333) (antibody, V domains shown, IgG; also called Ab31) VH: QVQLVQSGAEVKKPGASVKVSCKASGYTFTDYSMHWVRQAPGQRLEWMGSINAGTGITKYSQKFQGRVTITRDTSASTAYMELSSLRSEDTAVYYCARDAHGRYFYDVWGQGTLVTVSS VL: DIVMTQSPDSLAVSLGERATINCKSSQSLLNARTGKNYLAWYQQKPGQPPKLLIYWASTRESGVPDRFSGSGSGTDFTLTISSLQAEDVAVYYCKQSYSRRTFGGGTKVEIK
0.0239 | SAD10319_P04_E11 (ADI-57338) (antibody, V domains shown, IgG; also called Ab37) VH: QVQLVQSGAEVKKPGASVKVSCKASGYTFTDYNMHWVRQAPGQRLEWMGWINPYTGYTKYSQKFQGRVTITRDTSASTAYMELSSLRSEDTAVYYCARDHYGHYFYDVWGQGTLVTVSS VL: DIVMTQSPDSLAVSLGERATINCKSSQSLLNARTGKNYLAWYQQKPGQPPKLLIYWASTRESGVPDRFSGSGSGTDFTLTISSLQAEDVAVYYCKQSYSRRTFGGGTKVEIK
0.0262 | SAD10319_P04_A10 (ADI-57331) (antibody, V domains shown, IgG; also called Ab29) VH: QVQLVQSGAEVKKPGASVKVSCKASGYTFTSDAMHWVRQAPGQRLAWMGYINAGTGTTKYSQKFQGRVTITRDTSASTAYMELSSLRSEDTAVYYCAHDAYGHYFYDVWGQGTLVTVSS VL: DIVMTQSPDSLAVSLGERATINCKSSQSLLNARTGKNYLAWYQQKPGQPPKLLIYWASTRESGVPDRFSGSGSGTDFTLTISSLQAEDVAVYYCKQSYSRRTFGGGTKVEIK
